Experimental data from US20250332297A1, “DLL3-SPECIFIC BINDING CONSTRUCTS AND THEIR USE IN RADIOTHERAPY” (MOLECULAR PARTNERS AG, priority 2024, published 2025).
Changes are numbered by the printed parent chain. Like-named read-outs stand apart in the source and are kept apart here.

T1: human DLL3 expressed on HEK293T-huDLL3 cells (Homo sapiens, UniProt Q9NYJ7)
T1 construct: expressed in transfected cells; host or cells: HEK293T-hDLL3
T1 sequence (Q9NYJ7 27-618): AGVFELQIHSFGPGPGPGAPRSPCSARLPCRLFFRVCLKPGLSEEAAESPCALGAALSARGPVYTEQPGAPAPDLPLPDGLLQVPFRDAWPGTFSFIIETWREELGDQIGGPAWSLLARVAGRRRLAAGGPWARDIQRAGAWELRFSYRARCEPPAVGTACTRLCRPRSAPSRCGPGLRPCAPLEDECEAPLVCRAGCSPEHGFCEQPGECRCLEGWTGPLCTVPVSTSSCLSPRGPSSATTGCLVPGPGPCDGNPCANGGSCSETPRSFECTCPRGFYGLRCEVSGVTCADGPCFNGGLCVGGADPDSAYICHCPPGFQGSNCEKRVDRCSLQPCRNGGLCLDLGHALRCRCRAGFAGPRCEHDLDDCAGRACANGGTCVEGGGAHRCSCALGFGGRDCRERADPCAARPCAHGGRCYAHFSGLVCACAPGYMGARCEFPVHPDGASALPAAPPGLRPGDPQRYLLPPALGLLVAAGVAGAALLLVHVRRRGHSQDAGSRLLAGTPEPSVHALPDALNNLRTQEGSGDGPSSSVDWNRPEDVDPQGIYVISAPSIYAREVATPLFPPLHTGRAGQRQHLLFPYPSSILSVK

B1: MAM279 conjugate: SEQ ID NO: 15 conjugated to DOTAM-maleimide, labelled with Pb-212 (natural lead in PK studies) (conjugate)
chain: GSDLGKKLLEAARAGQDDEVRELLKAGADVNAKDYFSHTPLHLAARNGHLKIVEVLLKAGADVNAKDFAGKTPLHLAADAGHLEIVEVLLKAGADVNAQDIFGKTPADIAADAGHEDIAEVLQKAAGSPTPTPTTPTPTPTTPTPTPTGSDLGKKLLAAAAQGQDDEVRELLKAGANVNAKDLFGYTPLHLAAWRGHLEIVEVLLKAGADVNAKDAAGETPLHLAAWFGHLEIVEVLLKAGADVNAQDLQGKTPADLAAKEGHEDIAEVLQKAAGSGSC
modifications: DOTAM-maleimide, Pb-212 label; Ankyrin repeat protein with tag (GS-MAM279-tag)
B2: MAM279: Two domain (2D) ankyrin repeat protein: serum albumin-specific domain (SEQ ID NO: 7), PT linker, DLL3-specific domain of MAM093 (protein)
chain: DLGKKLLEAARAGQDDEVRELLKAGADVNAKDYFSHTPLHLAARNGHLKIVEVLLKAGADVNAKDFAGKTPLHLAADAGHLEIVEVLLKAGADVNAQDIFGKTPADIAADAGHEDIAEVLQKAAGSPTPTPTTPTPTPTTPTPTPTGSDLGKKLLAAAAQGQDDEVRELLKAGANVNAKDLFGYTPLHLAAWRGHLEIVEVLLKAGADVNAKDAAGETPLHLAAWFGHLEIVEVLLKAGADVNAQDLQGKTPADLAAKEGHEDIAEVLQKAA
modifications: Ankyrin repeat protein (MAM279)
B3: MAM283: Two domain (2D) ankyrin repeat protein: serum albumin-specific domain (SEQ ID NO: 7), PT linker, DLL3-specific domain (SEQ ID NO: 3) (protein)
chain: B2 chain with Q160D, K171Q, N175D, K204E, K237E, L247V, K270Q
modifications: Ankyrin repeat protein (MAM283)
B4: MAM282: Two domain (2D) ankyrin repeat protein: serum albumin-specific domain (SEQ ID NO: 7), PT linker, DLL3-specific domain (SEQ ID NO: 2) (protein)
chain: DLGKKLLEAARAGQDDEVRELLKAGADVNAKDYFSHTPLHLAARNGHLKIVEVLLKAGADVNAKDFAGKTPLHLAADAGHLEIVEVLLKAGADVNAQDIFGKTPADIAADAGHEDIAEVLQKAAGSPTPTPTTPTPTPTTPTPTPTGSDLGKKLLAAAREGQDDEVRELLKAGADVNAKDIWGQTPLHIAAWFGHLEIVEVLLKAGADVNAKDQTGHTPLHLAAKFGHLEIVEVLLKAGADVNAQDLLGRTPADLAAEEGHEDIAEVLQKAA
modifications: Ankyrin repeat protein (MAM282)
B5: Rova: Rova antibody, DLL3-binding benchmark antibody used as positive control and comparison (antibody, chains of the INN, looked up, V domains shown)
VH: QVQLVQSGAEVKKPGASVKVSCKASGYTFTNYGMNWVRQAPGQGLEWMGWINTYTGEPTYADDFKGRVTMTTDTSTSTAYMELRSLRSDDTAVYYCARIGDSSPSDYWGQGTLVTVSS
VL: EIVMTQSPATLSVSPGERATLSCKASQSVSNDVVWYQQKPGQAPRLLIYYASNRYTGIPARFSGSGSGTEFTLTISSLQSEDFAVYYCQQDYTSPWTFGQGTKLEIK
B6: MAM160: Two domain (2D) ankyrin repeat protein: serum albumin-specific domain (SEQ ID NO: 7), PT linker, DLL3-specific domain MAM120 (protein)
chain: DLGKKLLEAARAGQDDEVRELLKAGADVNAKDYFSHTPLHLAARNGHLKIVEVLLKAGADVNAKDFAGKTPLHLAADAGHLEIVEVLLKAGADVNAQDIFGKTPADIAADAGHEDIAEVLQKAAGSPTPTPTTPTPTPTTPTPTPTGSDLGTKLLSAAADGQDDEVRELLQAGADVNAKDLFGYTPLHLAAWRGHLEIVEVLLEAGADVNAKDAAGLTPLHLAAWFGHLEIVEVLLEAGADVNAQDVQGVTPADLAAKEGHEDIAEVLQQAA
modifications: Ankyrin repeat protein (MAM160)

How the values were obtained:
NCI-H82 tumor model = assay: Biodistribution of radio-labelled DARPin conjugates in NCI-H82 tumor model; conditions: for T:K ratio: R2G2 mice; for Blood % ID/g / Kidneys % ID/g / Tumors % ID/g: mouse, in vivo, iv, 0.01 mg/kg
Description: NCI-H82 tumor model. R2G2 mice were purchased from Envigo. All studies were conducted under the approval of the institutional IACUC committee. Animals were maintained under specific-pathogen-free (SPF) conditions with daily cycles of light and darkness (12 h/12 h), in line with ethical guidelines. No manipulations were performed during the first 5 days after arrival, to allow the animals to acclimatize to the new environment. All mice were monitored daily for assessment of physical condition and general well-being. NCI-H82 cells were purchased from ATCC (Catalog No. HTB-175). Solid xenografts were established by subcutaneous (SQ) injection of NCI-H82 cells in RPMI media mixed 1:1 with Corning® Matrigel® basement membrane matrix (GFR; Corning, Cat No 354230.). Cells were quantified using Countess cell counter. Each mouse was injected SQ with 5×10^6 NCI-H82 cells in 100 μL RPMI/GFR-Matrigel into the right flank of each mouse. Tumor volumes were estimated three times per week through calipering, according to the formula: volume=0.5×length×width^2 and grown until they reached 200-300 mm^3. Tumor-associated antigen level expressed in tumors, tumor vascularization profile and DLL3 soluble form in mouse serum was tested.
Biodistribution study. […] Radio-labeled (Pb-212) DARPin conjugates were then injected at 0.01 mg/kg (10 μCi DARPin conjugates) into the tail vein of R2G2 mice (females) xenografted subcutaneously (at age of about 7 weeks) with NCI-H82 cells (5 million cells, growth factor reduced Matrigel) and bearing tumors (5-10 mm in diameter). […] Biodistribution was monitored at 4 h and 24h post-injection. Mice were euthanized by CO2 inhalation and cervical dislocation. Blood, spleen, kidneys, liver and tumor were extracted, weighed and the radioactivity was determined with a γ-counter counter (such as Wizard^22470, Perkin Elmer). The data were expressed as the % injected dose/gram (% ID/g).
Radio-labeled (Pb-212) DARPin conjugates were then injected at 0.01 mg/kg (10 μCi DARPin conjugates) into the tail vein of R2G2 mice (females) xenografted subcutaneously (at age of about 7 weeks) with NCI-H82 cells (5 million cells, growth factor reduced Matrigel) and bearing tumors (5-10 mm in diameter). Biodistribution was monitored at 4 h and 24h post-injection. Mice were euthanized by CO2 inhalation and cervical dislocation. Kidneys and tumor were extracted, weighed and the radioactivity was determined with a γ-counter counter (such as Wizard^22470, Perkin Elmer). The data were expressed as the % injected dose/gram (% ID/g) and the tumor to kidney (T:K) ratio was determined.
Radio-labelled (Pb-212) DARPin conjugates were then injected at 0.01 mg/kg (10 μCi DARPin conjugates) (i) into the tail vein of R2G2 mice (females) xenografted subcutaneously (at age of about 7 weeks) with NCI-H82 cells (5 million cells, growth factor reduced Matrigel) and bearing tumors (5-10 mm in diameter), and (ii) into the tail vein of athymic nude mice (females) xenografted subcutaneously (at age of about 7 weeks) with hDLL3-MC38 cells (5 million cells, growth factor reduced Matrigel) and bearing tumors (5-10 mm in diameter). Biodistribution was monitored at 4 h and 24h post-injection. Mice were euthanized by CO2 inhalation and cervical dislocation. Blood, bladder, small intestine, colon, spleen, kidneys, liver, lung, heart, tail and tumor were extracted, weighed and the radioactivity was determined with a γ-counter (such as Wizard^22470, Perkin Elmer). The data were expressed as the % injected dose/gram (% ID/g).

[1] = target: T1, human DLL3 expressed on HEK293T-huDLL3 cells; assay: Cell binding titration on HEK293T-hDLL3 cells; type: cell-based; conditions: presence of human serum albumin (10 μM in FIG. 9 legend, 10 pM in the source), read-out: Cell binding EC50, with HSA
[2] = target: T1, human DLL3 expressed on HEK293T-huDLL3 cells; assay: Cell binding titration on HEK293T-hDLL3 cells; type: cell-based; conditions: absence of human serum albumin, read-out: Cell binding EC50, w/o HSA
Description: Cell binding titration assays were performed for selected His-tagged single domain (1 D) and two domain (2D) designed ankyrin repeat proteins to determine binding to human DLL3 expressed on HEK293T-huDLL3 cells in absence and presence of human serum albumin. Controls included Rova antibody as a positive control and a non-binding DARPin comprising SEQ ID NO: 21 as a negative control. HEK293T-hDLL3 cells are HEK293T cells that were stably transfected to express human DLL3 on their surface.
In brief, 1×10^5 cells/well were resuspended in 100 μl DARPin dilution (500 nM, 1:5 serial diluted) and incubated for 1 h at 4° C. Cells were washed twice with PBS and resuspended in 100 μl anti-DARPin antibody (rabbit anti-DARPin 1.4.8) and LIVE/DEAD fixable cell stain (1:1000, Thermo Fisher #L34957). This step was performed in absence and presence of […] Human Serum Albumin (CSL Behring #150570). After incubation and washing, cells were incubated with detection antibody for 30 minutes (Goat anti-Human IgG (H+L), AF647, Thermo Fisher #21445). Cells were fixed (Paraformaldehyde Solution, LucernaChem) and acquired at Attune N×T (Thermo Life Technologies). Raw fcs files were exported and analyzed using FlowJo software. MFI values of live AF647-positive cells were exported from FlowJo and plotted using GraphPad Prism software. None of the tested ankyrin repeat proteins show binding to the HEK293T wildtype cells.

Row | Molecule | T:K ratio (NCI-H82 tumor model; Pb-212 DOTAM conjugate 0.01 mg/kg (10 μCi) i.v., s.c. NCI-H82, 24 h, Example 9) | T:K ratio (NCI-H82 tumor model; Pb-212 conjugate, NCI-H82 cells xenografted intravenously instead of subcutaneously, 24 h (data not shown)) | EC50 [1] [nM] | EC50 [2] [nM] | Blood % ID/g (NCI-H82 tumor model; 4 h) [% ID/g] | Kidneys % ID/g (NCI-H82 tumor model; 4 h) [% ID/g] | Tumors % ID/g (NCI-H82 tumor model; 4 h) [% ID/g] | Blood % ID/g (NCI-H82 tumor model; 24 h) [% ID/g] | Kidneys % ID/g (NCI-H82 tumor model; 24 h) [% ID/g] | Tumors % ID/g (NCI-H82 tumor model; 24 h) [% ID/g]
1 | B1 | above 1 | above 1 | – | – | – | – | – | – | – | –
2 | B2 | – | – | 16.3 | 14.9 | 23 | 11 | 8 | 13 | 25 | 29
3 | B3 | – | – | 18.4 | 22.1 | – | – | – | – | – | –
4 | B4 | – | – | 19.6 | 21.2 | – | – | – | – | – | –
5 | B5 | – | – | 0.3 | 0.1 | – | – | – | – | – | –
6 | B6 | – | – | 36.6 | 18.9 | 13.8 | 12.4 | 7.1 | 3.2 | 18.7 | 13.3
